Patent publication US20040022780A1, “Serine protease and topical retinoid compositions useful for treatment of acne vulgarise and production of anti-aging effects” (priority 1997, published 2004)

How the values were obtained:
[1] = system: utriculi of Rhino mouse skin; assay: Rhino mouse utriculus size reduction (whole mount epidermis image analysis); format: in vivo; details: for Utriculus Size Reduction (%) vs. Liposome Control: topical once daily for five days, sacrificed day 8
Excerpt: The Rhino mouse has been used as an experimental acne model to screen topically active comedolytic and antikeratinizing agents as described in Sundberg, J. P., “The Hairless and Rhino Mutations, Chromosome 14,” Handbook of Mouse Mutations With Skin and Hair Abnormalities 291-312 (1994), which is incorporated herein by reference in its entirety. A recessive mutation on chromosome 14 results in a mouse with wrinkled skin devoid of body hair by age 25 days. At that time, the end of the first hair cycle, the follicular papillae fail to follow the regressing hair follicles and become isolated in the dermis. […] The upper remnants of the hair follicle are filled with sloughed, cornified cells and form utriculi with a small sebaceous gland at their base, resembling an open comedone. The rhino skin becomes progressively loose, forming folds and ridges, due to the expansion of the surface, secondary to abortive hair follicles filling with cornified debris. The utriculi progressively enlarge, forming pilary cists (pseudocomedones), which are dilated follicular infundibula filled with cornified debris.
RHJ/LE Hairless (“Rhino”) male mice, 5-7 weeks of age, were obtained from Jackson Laboratories (Bar Harbor, Me.), and treated as described in Mezick et al., “Topical and Systemic Effects of Retinoids on Horn-Filled Utriculus Size in the Rhino Mouse: A Model to Quantify “Antikeratinizing” Effects of Retinoids,” 83 J. Invest. Dermatol. 110-113 (1984) (“Mezick”), which is incorporated herein by reference in its entirety.
Rhino mice of Example 1 were topically treated with the trypsin compositions (0.001% (w/v)-1% (w/v)) of Example 2 once daily for five days. Animals were sacrificed at day 8 and image analysis was used to quantify the reduction in utriculi size. For image analysis, whole mount epidermis was processed and microscopic measurements were taken according to the methods described in Mezick as well as Bernerd et al., “The Rhino Mouse Model: The Effects of Topically Applied All-Trans Retinoic Acid and CD271 on the Fine Structure of the Epidermis and Urticuli Wall of Pseudocomedones,” 283(2) Arch. Dermatol. Res. 100-107 (1991) and Bouclier et al., “Quantification of Epidermal Histological Changes Induced by Topical Retinoids and CD271 in the Rhino Mouse Model Using a Standardizing Image Analysis Technique,” 4(2) Skin Pharmacol. 65-73 (1991) which are each incorporated herein by reference in their entirety. Empire Imagins Database version 1.1 was used on a Gateway 2000 P5-100 computer for capturing images. Image Pro Plus version 1.3 was used for measurements and Microsoft Excel version 5.0 for data processing. The mean utriculus diameter (μ) and the mean sebaceous gland size (μ^2) were calculated for each treatment group (3 Rhino mice), using 5 random fields, two measurements per field, per animal. Percent reduction in utriculi diameter was calculated in accordance with the methods described in Finley, D. J., “Parallel Line Assays, Statistical Method in Biological Assay,” Charles Griffen & Company Ltd. 69-104 (1978) which is incorporated herein by reference in its entirety.

Rhino mouse skin = assay: Visual irritation (scaling and erythema); format: in vivo; details: up to 1% (w/v) trypsin; not dose dependent
Elastin mRNA = assay: RT-PCR gene expression in skin, elastin; format: in vivo, Rhino mouse; details: increasing concentrations of trypsin (0.0001-0.01% (w/v)) daily for five days
Method: (§1) Rhino mice of Example 1 were treated daily with trypsin compositions (0% (w/v), 0.0001% (w/v), 0.001% (w/v), and 0.01% (w/v)), as prepared in Example 2, for five days and sacrificed at day eight. The skins of vehicle treated mice and trypsin-treated mice were obtained as described in Example 3, then their total RNAs were extracted using “RNA Stat-60” reagent available from Tel-Test “B,” Inc. as described in Chomczymski, “Single Step Method of RNA Isolation By Acid Guanidinium Thiocyanate-phenol-chloroform extraction,” 162 Anal. Biochem. 156-59 (1987) which is incorporated herein by reference in its entirety. A sufficient amount of RNase-free DNase available from Promega, Corp. under the tradename “RQ1 RNase-free DNase” was then added to the extracted RNA from each mouse such that each respective product contained 200 ng of DNased-RNA using the procedure set forth in “RNase-free DNase” protocol published by Promega, Corp. (May, 1995). […]
(§2) The PCR products were then analyzed on 2% agarose/ethidium bromide gels according to methods well-known in the art in order to compare the level of expression of certain genes in skins of trypsin-treated and untreated mice. […]

Transglutaminase mRNA = assay: RT-PCR gene expression in skin, transglutaminase; format: in vivo, Rhino mouse; details: increasing concentrations of trypsin (0.0001-0.01% (w/v)) daily for five days
Method: as §1, §2

[2] = system: hamster ear sebaceous gland; assay: Hamster ear model, sebaceous gland size; format: in vivo, golden Syrian hamsters
Method: The possible effect of trypsin on the sebaceous component of acne was evaluated using the hamster ear model system. Young golden Syrian hamsters, 45-55 grams upon arrival, were purchased from Charles River Laboratories (Wilmington, Mass.). The ventral side of the hamsters' right ears were treated daily with 10 μl of the trypsin composition of Example 2, five days a week for three weeks, while the left ears were used as untreated controls.

B1: trypsin (protein, UniProt P00760 24-246, looked up)
Serine protease 1: IVGGYTCGANTVPYQVSLNSGYHFCGGSLINSQWVVSAAHCYKSGIQVRLGEDNINVVEGNEQFISASKSIVHPSYNSNTLNNDIMLIKLKSAASLNSRVASISLPTSCASAGTQCLISGWGNTKSSGTSYPDVLKCLKAPILSDSSCKSAYPGQITSNMFCAGYLEGGKDSCQGDSGGPVVCSGKLQGIVSWGSGCAQKNKPGVYTKVCNYVSWIKQTIASN
notes: lyophilyzed trypsin from Sigma-Aldrich, a serine protease, in Hepes buffer mixed with GDL liposomes
- Utriculus Size Reduction (%) vs. Liposome Control ([1]; Trypsin 0.001% (w/v) in GDL liposomes): 26.85 ± 4.38%
- Utriculus Size Reduction (%) vs. Liposome Control ([1]; Trypsin 0.005% (w/v) in GDL liposomes): 19.58 ± 3.06%
- Utriculus Size Reduction (%) vs. Liposome Control ([1]; Trypsin 0.01% (w/v) in GDL liposomes): 33.08 ± 2.15%
- Utriculus Size Reduction (%) vs. Liposome Control ([1]; Trypsin 0.05% (w/v) in GDL liposomes): 43.84 ± 0.62%
- Utriculus Size Reduction (%) vs. Liposome Control ([1]; Trypsin 0.1% (w/v) in GDL liposomes): 50.67 ± 0.83%
- Utriculus Size Reduction (%) vs. Liposome Control ([1]; Trypsin 0.5% (w/v) in GDL liposomes): 54.31 ± 1.33%
- Utriculus Size Reduction (%) vs. Liposome Control ([1]; Trypsin 1.0% (w/v) in GDL liposomes): 54.85 ± 1.02%
- maximal reduction of utriculus size relative to liposomal control ([1]; further increase in trypsin concentration above ~0.1% (w/v)): ≤ 55%
- trypsin concentration at which reduction in utriculus size reached a plateau ([1]; once daily for five days): ~0.1 % (w/v)
- visual irritation (scaling and erythema) (Rhino mouse skin): minor scaling and erythema
- Elastin mRNA (Elastin mRNA): increased
- Transglutaminase mRNA level (Transglutaminase mRNA): reduced to below detection level
- Sebaceous Gland Size ([2]; Trypsin 0.5% (w/v), 10 μl daily on ventral right ear, five days a week for three weeks): 95043.0 ± 4269.1 μ^2
- Percent Size Decrease (%) of sebaceous gland ([2]; Trypsin 0.5% (w/v), vs. liposome vehicle): −0.36 (vs. liposome %
- effect on the size of the sebaceous gland ([2]; hamster ear, daily, five days a week for three weeks): no effect
